Experimental data taken from article PMC10688334, “Toward the understanding of DSG2 and CD46 interaction with HAdV-11 fiber, a super-complex analysis” (Journal of Virology, 2023).

B1: recombinant DSG2 EC2-EC3 extracellular domains (domain or fragment, human, UniProt Q14126 149-386, looked up)
chain: VLDINDNEPVFTQDVFVGSVEELSAAHTLVMKINATDADEPNTLNSKISYRIVSLEPAYPPVFYLNKDTGEIYTTSVTLDREEHSSYTLTVEARDGNGEVTDKPVKQAQVQIRILDVNDNIPVVENKVLEGMVEENQVNVEVTRIKVFDADEIGSDNWLANFTFASGNEGGYFHIETDAQTNEGIVTLIKEVDYEEMKNLDFSVIVANKAAFHKSIRSKYKPTPIPIKVKVKNVKEGI
notes: desmoglein 2 (DSG2), human, EC2-EC3 domains, residues V149-I386 of Swiss-Prot Q14126.2; Cloned AgeI/KpnI in pHL-sec, which supplies a secretion signal and the C-terminal His6; also called rDSG2; soluble rDSG2; source: HEK293 F, transiently transfected, secreted, purified from supernatant (His GraviTrap, Superdex 200)
B2: human HAdV-11 fiber knob, wild type (domain or fragment)
chain: DDNINTLWTGVNPTEANCQIMNSSESNDCKLILTLVKTGALVTAFVYVIGVSNNFNMLTTHRNINFTAELFFDSTGNLLTRLSSLKTPLNHKSGQNMATGAITNAKGFMPSTTAYPFNDNSREKENYIYGTCYYTASDRTAFPIDISVMLNRRAINDETSYCIRITWSWNTGDAPEVQTSATTLVTSPFTFYYIREDD
notes: HAdV-11 fiber protein, knob, residues D128 to D325 of Swiss-Prot P35774; gene synthesised by GenScript; Trimeric form purified; amine-coupled to the biosensor in the kinetic BLI; also called HAd11K; HAd11 knob; not shown: His6, N-terminal, kept

Columns and labels:
[1] = target: B2; test: cryo-EM structure; SEC fraction of HAd11K/rDSG2/rCD46 super-complex (rDSG2:rCD46 3:1); settings: both partners purified
[2] = target: B2; test: BLI; HAd11K (WT or D265A), 100 µg/mL in 10 mM sodium acetate pH 4, amine-coupled to AR2G biosensor; rDSG2 or rCD46 0.7-10.8 µM in HBS-P (10 mM HEPES, 145 mM NaCl, 0.005% P20, pH 7.4) with 3 mM CaCl2; room temperature; association 180 s, dissociation 120 s; global fit; settings: both partners purified
[3] = target: the molecule itself; test: cryo-EM structure; HAd11K in complex with rDSG2; two populations (one or two rDSG2 per knob trimer)
[4] = target: B1; test: BLI; HAd11K (WT or D265A), 100 µg/mL in 10 mM sodium acetate pH 4, amine-coupled to AR2G biosensor; rDSG2 or rCD46 0.7-10.8 µM in HBS-P (10 mM HEPES, 145 mM NaCl, 0.005% P20, pH 7.4) with 3 mM CaCl2; room temperature; association 180 s, dissociation 120 s; global fit; settings: both partners purified

| Binder | stoichiometry N [1] | Kd [2] [nM] | koff [2] [s⁻¹] | kon [2] [M⁻¹ s⁻¹] | stoichiometry N [3] | Kd [4] [nM] | koff [4] [s⁻¹] | kon [4] [M⁻¹ s⁻¹] |
| --- | --- | --- | --- | --- | --- | --- | --- | --- |
| B1 | 1 | – | – | – | – | – | – | – |
| recombinant CD46 SCR1-SCR2 domains (domain or fragment, human, UniProt P15529 35-160, looked up, hCD46, the two first extracellular domains (SCR1, SCR2), residues C35-V160 of Swiss-Prot P15529; gene synthesised by GenScript; Cloned in the same vector pHL-sec as rDSG2 (secretion signal, C-terminal His6); also called rCD46; soluble rCD46; source: HEK293 F, transiently transfected, secreted, purified from supernatant (His GraviTrap, Superdex 200)) CEEPPTFEAMELIGKPKPYYEIGERVDYKCKKGYFYIPPLATHTICDRNHTWLPVSDDACYRETCPYIRDPLNGQAVPANGTYEFGYQMHFICNEGYYLIGEEILYCELKGSVAIWSGKPPICEKV | 1 | 243 | 0.005 | 22800 | – | – | – | – |
| B2 | – | – | – | – | 3 | 2900 | 0.114 | 39400 |
